Reference: paper PMC6350010

Target: Wild-type Aβ (1–40) peptide
Assay: single-molecule fluorescence burst analysis

Atto655-Aβ40 (peptide)
mean of the oligomer size distribution, μ1 (relative photon number N phot,rel): 7.4 N¯phot,mon
